B1: DHF48 (designed binder)
chain: MAVEEAIRVMRLVREAEQVLLQAKMMGSERVLEMALRTAEEAAREAKLVLAVAELEGDPVVALIAVELVVRVAELLLRIAKESGSEEALERALRVAEEAARLAKRVLELAEKQGDPEVALRAVELVVRVAELLLRIAKESGSEEALERALRVAEEAARLAKRVLELAEKQGDPEVARRAVELVKRVAELLERIARESGSEEAKERAERVREEARELQERVKELREREGLE
notes: vector pET28b; forms a homo-polymer
B2: DHF44 (designed binder)
chain: AVLALMVVNLLVQLAIELLSRAMLKGSAEDLEKALRTAEEAAREAKKVLEQAEKDGDPEVALLAVELVVVVATILLMIAKISGSEEALERALRVAEEAARLAKRVLELAEKQGDPEVALRAVELVVRVAELLLRIAKESGSEEALERALRVAEEAARLAKRVLELAEKQGDPEVARRAVELVKRVAELLERIARESGSEEAKERAERVREEARELQERVKELREREG
notes: vector pCDB24 (SUMO fusion); forms a homo-polymer
B3: DHF51 (designed binder)
chain: AVDQMIRVIVLVKEAEEALLNAKLLGSEMALTLALRTAEEAARVAKTVLELAEKDGDPVVALLAVELVVRVAELLLRIAKESGSEEALERALRVAEEAARLAKRVLELAEKQGDPEVALRAVELVVRVAELLLRIAKESGSEEALERALRVAEEAARLAKRVLELAEKQGDPEVARRAVELVKRVAELLERIARESGSEEAKERAERVREEARELQERVKELREREG
notes: as for B2
B4: DHF50 (designed binder)
chain: AIVQLMTVIAMAVIANALLIRAIVNGSAEDLEKALRTAEEAAREAKKVLEQAEKDGDPEVALRAVELVVLVAVNLLLIAKESGSEEALERALRVAEEAARLAKRVLELAEKVGDPEVALRAVELVVRVAELLLRIAKESGSEEALERALRVAEEAARLAKRVLELAEKQGDPEVARRAVELVKRVAELLERIARESGSEEAKERAERVREEARELQERVKELREREG
notes: as for B2
B5: DHF47 (designed binder)
chain: INLTIAILVAILVATMVELVAIRAQLEGNPELAASAMELRRAVEEAIEEAEKQGNPLLVLWVAVAAKVAAEVIKVAIQAEKEGNRDLFRAALELVRAVIEAIEEAVKQGNPELVEWVARAAKVAAEVIKVAIQAEKEGNRDLFRAALELVRAVIEAIEEAVKQGNPELVERVARLAKKAAELIKRAIRAEKEGNRDERREALERVREVIERIEELVRQGN
notes: as for B2
B6: DHF40 (designed binder)
chain: SSEKEELRERLVKICVELAKLKGDDTLKAAEAAEEAFRLVVLAAMLAGIDSSEVLELAIRLIKTCVVLAAMEGYDISEACRAAAEAFTRVAMAALRAGITSSLVLKAAIELIKECVLNAAVEGYDISEACRAAAEAFKRVAEAAKRAGITSLETLLRAIEEIRKRVEEAQREGNDISEACRQAAEEFRKKAEELKRRGDV
notes: as for B2
B7: DHF58 (designed binder)
chain: MELLRVVMLVKEAEELLTLAVIKGSEDDLQKALRTAVEAAREAVKVLLQAVKRGDPEVALRAVELVVRVAELLLRIAKESGSELALKMALLVAEEAARLAKIVLELAEKQGDPEVALRAVELVVRVAELLLRIAKESGSEEALERALRVAEEAARLAKRVLELAEKQGDPEVARRAVELVKRVAELLERIARESGSEEAKERAERVREEARELQERVKELREREGLE
notes: vector pET28b; forms a homo-polymer; cryoEM PDB 6E9T (4-repeat structure); also called DHF58 four-repeat protomer
B8: DHF36 (designed binder)
chain: MVEKNMLRLRLVKIVVENAKTKGDDTEEAREAAREAFEKVRVAAEVAGIDSSEVLELAIRLIKEVVLLALLEGYDISEAARAAAEAFVRVAVAAKIAGITSSEVLELAIRLIKEVVMNAMMEGYDISEAARAAAEAFKLVAEAAKRAGITSSETLKRAIEEIRKRVEEAQREGNNISVAALEAADEFRKKAEELKRRGLE
notes: as for B1
B9: DHF46 (designed binder)
chain: MGHHHHHHSSGTKEERVLLMKVAILAIVAAKKGNTDEVRKALELALLIAKVSGTTEAVKLALEVVARVAIEAARRGNTDAVREALEVALEIARESGTTEAVKLALEVVARVAIEAARRGNTEAVVEALLVALEIAKESGTEEAVRLALEVVKRVSNEALKQGNVDAVKVALEVRKMIEELSG
notes: vector pET28b; forms a homo-polymer; cryoEM PDB 6E9R
B10: DHF5 (designed binder)
chain: ALDLLARVIVLVMEAVKLLVLAVIMGLEMILRVALRLAEEAARAAKAVLLLAEVEGDPEVALKAVELVVRVAELLLRIAKESGSEEALERALRVAEEAARLAKRVLELAEKQGDPEVALRAVELVVRVAELLLRIAKESGSEEALERALRVAEEAARLAKRVLELAEKQGDPEVARRAVELVKRVAELLERIARESGSEEAKERAERVREEARELQERVKELREREG
notes: as for B2
B11: DHF49 (designed binder)
chain: MGHHHHHHSSGSDEEEARELIERAAEAAKRAVEAAERTGDPNVVELAKELVRLAQEAAEEVKRDPSSSDVNEALKLIVEAIEAAVRALEAAERTGDPVVRLLARELVRLAVEAAEEVQRNPSSSDVNEALKLIVEAIEAAVRALEAAERTGDPEVRELARELVRLAVEAAEEVQRNPSSEQVNEALKKIVKAIQEAVESLREAEESGDPEKRDKARLRVLEAVIRAMVVQIN
notes: as for B1
B12: DHF38 (designed binder)
chain: AEELLKRVEKLVKEAEELLRQAMKKGSEELLEVALVVAQMAAREAKKVLTMAEVEGDPEVALRAVELVVRVAELLLRIALVSGSEEALERALRVAEEAARLAKRVLELAESQGDPEVALRAVELVVRVAELLLLIAKVSGSEEALERALRVAEEAARLAKRVLELAEKQGDPAVAILAVMLVKRVAELLENIARESGSEEAKERAERVREEARELQERVKELKERAG
notes: vector pCDB24 (SUMO fusion, removed with SUMO protease); forms a homo-polymer; cryoEM PDB 6E9Y
B13: DHF4 (designed binder)
chain: ADEELARILIEMAKTAAEAAQMAAEVTGDPRVRLLAVRLKMLALMAALEVILDPSSSDVNEALKLIVEAIEAAVKALLAAVRTGDPEVRELARELVRLAVEAAEEVQRNPSSSDVNEALKLIVEAIEAAVRALEAAERTGDPEVRELARELVRLAVEAAEEVQRNPSSEEVNEALKKIVKAIQEAVESLREAEESGDPEKREKARERVREAVERAEEVQRN
notes: as for B2
B14: DHF52 (designed binder)
chain: SLKELLELERVAVEAIVAAAEGNTMEVIEQLQRAMLIAVLSGTTSAVKLALEVVARVAIEAARIGNTDAVRIALSVALTIAVISGTTEAVKLALEVVARVAIEAARRGNTDAVREALEVALEIARESGTEEAVRLALEVVKRVSDEAKKQGNEDAVKEAEEVRKKIEEESG
notes: as for B2
B15: DHF31 (designed binder)
chain: AAIETLNVMTLVMLALLLLIQAISKGSAEDLEKALRTAEEAAREAKKVLEQAEKEGDPDQALKAVELVVVVAQLLLQIAIASGSREALERALRVAEEAARLAKRVLELAEKQGDPEVALRAVELVVRVAELLLRIAKESGSEEALERALRVAEEAARLAKRVLELAEKQGDPEVARRAVELVKRVAELLERIARESGSEEAKERAERVREEARELQERVKELREREG
notes: as for B2
B16: DHF34 (designed binder)
chain: AEVILLVAVLLLAKAVEAVLMGNRVAFRLAAELALRVAKLLVIMAKVEGDPELVLEAAKVALVVASLAALNGDKEVFKKAAESALEVAKRLVEVASKEGDPELVLEAAKVALKVAELAAKNGDKEVFKKAAESALEVAKRLVEVASKEGDPELVEEAAKVAEEVRKLAKKQGDEEVYEKARETAREVKEELKRVREEKG
notes: as for B2

Target: the molecule itself
Test: negative stain EM; 1 = filaments observed (self-assembly)
Description: The designs were expressed in Escherichia coli under the control of a T7 promoter and purified using immobilized metal affinity chromatography (IMAC). […] IMAC eluates were concentrated, and filament formation was monitored by negative stain electron microscopy (EM); insoluble designs were characterized by EM either directly in the initial insoluble fraction, or after solubilization in guanidine hydrochloride, IMAC, and subsequent removal of denaturant.
Negative Stain Electron Microscopy. Soluble fractions were concentrated and insoluble fractions were resuspended in buffer (25 mM Tris, 75 mM NaCl, pH 8) for EM screening. A drop of 6 μL (1 μl sample instantly diluted with 5 μl of buffer) was applied on negatively glow discharged, carbon-coated 200-mesh copper grids (Ted Pella, Inc.), washed with Milli-Q™ Water and stained using 0.75% uranyl formate as described previously (28). The screening was performed on either a 120 kV Tecnai Spirit™ T12 transmission electron microscope (FEI, Hillsboro, Oreg.) or a 100 kV Morgagni M268 transmission electron microscope (FEI, Hillsboro, Oreg.). Images were recorded on a bottom mount Teitz CMOS™ 4 k camera system. The contrast of the images was enhanced in the Fiji software (29) for clarity.

Binding result, binds:
B1
B2
B3
B4
B5
B6
B7
B8
B9
B10
B11
B12
B13
B14
B15
B16
